Publication PMC9352529

Key:
[1] = molecular target: human GABAA receptor α1 subunit (HEK293T cells stably expressing α1β2γ2) (human); assay: co-IP; HEK293T cells stably expressing α1β2γ2 GABAA receptors, treated with non-targeting siRNA or siRNAs against both EMC3 and EMC6 for 48 h; lysate incubated with anti-α1 antibody; blot for SEC61α and α1
[2] = molecular target: FLAG-tagged EMC3 R180A (human) (human) (UniProt Q9P0I2); assay: co-IP; HEK293T cells stably expressing α1β2γ2 GABAA receptors, transiently transfected with FLAG-tagged EMC3 variants, or with FLAG-tagged EMC5 and EMC6 variants; lysate (50 mM Tris pH 7.5, 150 mM NaCl, 2 mM DDM) on anti-FLAG M2 magnetic beads overnight at 4°C; blot for α1 and FLAG; band intensity of α1 over FLAG
[3] = molecular target: FLAG-tagged EMC3 R31A (human) (human) (UniProt Q9P0I2); assay: as above
[4] = molecular target: FLAG-tagged EMC6 D27A (human) (human) (UniProt Q9BV81); assay: as above
[5] = molecular target: FLAG-tagged EMC6 N22A (human) (human) (UniProt Q9BV81); assay: as above

| normalized SEC61α over α1 intensity after IP, knock-down of both EMC3 and EMC6 against non-targeting siRNA [1] | normalized α1 intensity over FLAG after IP, relative to WT EMC3 (relative to WT EMC3) [2] | normalized α1 intensity over FLAG after IP, relative to WT EMC3 (relative to WT EMC3) [3] | α1 band intensity over FLAG-tagged EMC6 after IP, relative to WT EMC6 (relative to WT EMC6) [4] | α1 band intensity over FLAG-tagged EMC6 after IP, relative to WT EMC6 (relative to WT EMC6) [5] | Substance |
| --- | --- | --- | --- | --- | --- |
| 5.3 fold | – | – | – | – | SEC61α (endogenous, HEK293T) (from UniProt P61619 1-476) (natural protein) |
| – | 0.4 | 0.48 | 0.72 | 0.55 | human GABAA receptor α1 subunit (HEK293T cells stably expressing α1β2γ2) (natural protein) |
